Some targets named below: FcγRIIIa (CD16a) (human) (UniProt P08637); FcRn (human) (UniProt P55899); FcγRIIa (CD32a) (human) (UniProt P12318); FcγRI (CD64) (human) (UniProt P12314).
Experiment [1] addresses FcγRIIb/c (CD32b/c) (human) (UniProt P31994).
For experiment [2], the target named is parvovirus antigen (target of Parvovirus-Ab). The experiment is described as follows: specific antibody content of the polyclonal IgG preparation; assay not described.
Experiment [3] addresses diphtheria toxin (target of Diphteria antitoxin) (UniProt P00588). Described as above.
Sequence of UniProt P00588 (P00588 33-567 limits assumed): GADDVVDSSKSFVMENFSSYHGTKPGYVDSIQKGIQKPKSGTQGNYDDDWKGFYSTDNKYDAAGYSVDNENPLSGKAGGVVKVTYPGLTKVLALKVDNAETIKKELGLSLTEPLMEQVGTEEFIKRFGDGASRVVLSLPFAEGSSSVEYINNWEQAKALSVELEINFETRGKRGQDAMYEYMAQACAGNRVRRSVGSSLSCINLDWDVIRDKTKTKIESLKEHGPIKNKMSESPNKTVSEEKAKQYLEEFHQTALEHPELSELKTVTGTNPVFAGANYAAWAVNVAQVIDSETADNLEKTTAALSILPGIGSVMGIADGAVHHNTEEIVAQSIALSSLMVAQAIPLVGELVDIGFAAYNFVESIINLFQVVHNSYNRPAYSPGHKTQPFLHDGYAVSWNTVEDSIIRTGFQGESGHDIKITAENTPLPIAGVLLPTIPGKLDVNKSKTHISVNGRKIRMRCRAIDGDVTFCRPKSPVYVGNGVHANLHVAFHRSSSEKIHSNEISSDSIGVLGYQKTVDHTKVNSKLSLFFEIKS

With IgG (Hizentra) (antibody), the Kd with FcγRIIIa (CD16a) (human) stood at 496 nM; with FcRn (human) it was 1 nM; in the experiment with FcγRIIa (CD32a) (human) it was 213 nM; with FcγRI (CD64) (human), 19.7 nM; in experiment [1], 2700 nM. The koff with FcγRIIIa (CD16a) (human) was 0.036 s⁻¹; in the experiment with FcRn (human), 0.0025 s⁻¹; in the experiment with FcγRIIa (CD32a) (human), 0.055 s⁻¹; with FcγRI (CD64) (human), 0.0017 s⁻¹. In addition, the kon with FcγRIIIa (CD16a) (human) was found to be 73000 M⁻¹ s⁻¹; with FcRn (human), 2.5e+06 M⁻¹ s⁻¹; with FcγRIIa (CD32a) (human), 260000 M⁻¹ s⁻¹; with FcγRI (CD64) (human), 87000 M⁻¹ s⁻¹. The Parvovirus-Ab (IU/mL) in experiment [2] (original Hizentra formulation) is 595 IU/mL; in experiment [2] (re-formulated Hizentra), 509 IU/mL. In experiment [3], the Diphteria antitoxin (IU/mL) amounted to 18.1 IU/mL.

By Kd is commonly meant the equilibrium constant for the complex coming apart. Read a low Kd as higher affinity. The term koff denotes the first-order rate constant of dissociation. Higher therefore signals fast dissociation. One may read the kon as the second-order rate constant of association. Low values mean slower complex formation, high ones faster complex formation.

(Values after US20220062405A1.)
